The record followed here is the supplement of paper PMC10724198.

± gives the standard deviation of the averaged measurements.

This data set has as its system Saccharomyces cerevisiae. As to the kind of experiment: protein stability index of tFT-peptide fusion (C-terminal peptide) (PSI (0-1 scale)); higher = more stable (slower turnover). Particulars: temperature: 30 C. Here is the method: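 MPS profiling in S. cerevisiae of the yeast C-terminome library: the last 12 aa of each annotated ORF are fused to the C-terminus of a sfGFP-mCherry timer, after a GGGS linker. Cells are FACS-sorted into 8 mCherry/sfGFP bins and deep-sequenced. PSI runs from 0 (unstable) to 1 (stable); wild type and das1Δ backgrounds, two technical replicates each.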

Where [1] appears, read: genetic background: das1 deletion.

For the sequence KGNSMVVHGAQS [SHE3 C-terminal 12 aa], the protein stability index is 0.687 ± 0.026 under setting [1] and 0.6853 ± 0.0059 (genetic background: wild type).

KIKKIVLKRSFD [NMD2 C-terminal 12 aa] came in with a protein stability index under setting [1] of 0.7019 ± 0.0021 and a protein stability index (genetic background: wild type) of 0.654 ± 0.022.

On to KISKSELEGVPS [MTC6 C-terminal 12 aa], for which the protein stability index by setting is: under setting [1], 0.722 ± 0.019; (genetic background: wild type) 0.714 ± 0.045.

Take KITEKWTHKDFK [NOP53 C-terminal 12 aa]: the protein stability index is, setting by setting: under setting [1], 0.688 ± 0.027; (genetic background: wild type) 0.719 ± 0.058.

With “KITVSNLTNQQI [YCL001W-B C-terminal 12 aa]”, the protein stability index is, setting by setting: under setting [1], 0.6746 ± 0.0032; (genetic background: wild type) 0.684 ± 0.04.

Regarding KIVIPDKFIQHI [HRD1 C-terminal 12 aa], the protein stability index turned out to be 0.673 ± 0.025 under setting [1] and 0.706 ± 0.028 (genetic background: wild type).

Regarding KKAPYFLPAPHT [FMO1 C-terminal 12 aa], the protein stability index reads like this: under setting [1], 0.7 ± 0.012; (genetic background: wild type) 0.715 ± 0.0093.

On to KKEKISKYVSKS [OPI11 C-terminal 12 aa], for which the protein stability index was found to be 0.725 ± 0.0098 under setting [1] and 0.683 ± 0.035 (genetic background: wild type).

Take KKEPGANCCIIL [RHO2 C-terminal 12 aa]: the protein stability index reads like this: under setting [1], 0.743 ± 0.02; (genetic background: wild type) 0.72 ± 0.021.

On to KKIVIIYVVRFH [BSC4 C-terminal 12 aa], for which the protein stability index stood at 0.304 ± 0.015 under setting [1] and 0.339 ± 0.01 (genetic background: wild type).

KKKAINEKAEQN [SEC62 C-terminal 12 aa]: the protein stability index is 0.679 ± 0.018 under setting [1] and 0.635 ± 0.02 (genetic background: wild type).

Regarding KKKKSLFLFGKI [YOR019W C-terminal 12 aa], the protein stability index was 0.702 ± 0.039 under setting [1] and 0.6688 ± 0.0015 (genetic background: wild type).

For the sequence KKKYKFHQGLSI [SOL2 C-terminal 12 aa], the protein stability index is, setting by setting: under setting [1], 0.699 ± 0.028; (genetic background: wild type) 0.695 ± 0.02.

Take KKLSNDGETQAN [DMO2 C-terminal 12 aa]: the protein stability index was 0.681 ± 0.013 under setting [1] and 0.655 ± 0.011 (genetic background: wild type).

With KKRISEKQHFIE [AMF1 C-terminal 12 aa], the protein stability index is, setting by setting: under setting [1], 0.689 ± 0.038; (genetic background: wild type) 0.633 ± 0.016.

For the sequence KKRNWKRREASS [NRG2 C-terminal 12 aa], the protein stability index stood at 0.698 ± 0.016 under setting [1] and 0.626 ± 0.044 (genetic background: wild type).

With KKRRIHPTPVDL [CAC2 C-terminal 12 aa], the protein stability index reads like this: under setting [1], 0.6974 ± 0.0037; (genetic background: wild type) 0.724 ± 0.027.

Consider KKVLLQAKQYSK [UBC9 C-terminal 12 aa], for which the protein stability index was 0.678 ± 0.017 under setting [1] and 0.682 ± 0.031 (genetic background: wild type).

KLEKKQSERSTH [STE7 C-terminal 12 aa]: the protein stability index turned out to be 0.7002 ± 0.0013 under setting [1] and 0.769 ± 0.067 (genetic background: wild type).

As to KLFESGQDSFDN [MRC1 C-terminal 12 aa], the protein stability index runs as follows: under setting [1], 0.7192 ± 0.0032; (genetic background: wild type) 0.727 ± 0.022.

For KLGEAEVQGLIM [YDR340W C-terminal 12 aa], the protein stability index runs as follows: under setting [1], 0.721 ± 0.0023; (genetic background: wild type) 0.688 ± 0.0056.

KLGSYLRDYLRK [GLO3 C-terminal 12 aa]: the protein stability index worked out at 0.707 ± 0.0072 under setting [1] and 0.689 ± 0.0095 (genetic background: wild type).

Consider KMFAKYRENSRI [DYN3 C-terminal 12 aa], for which the protein stability index turned out to be 0.692 ± 0.017 under setting [1] and 0.667 ± 0.0047 (genetic background: wild type).

Take KMLWQGITDYYI [YOL163W C-terminal 12 aa]: the protein stability index by setting is: under setting [1], 0.7357 ± 0.0031; (genetic background: wild type) 0.717 ± 0.021.

For the sequence “KMQGKYIKKKAM [YNR001W-A C-terminal 12 aa]”, the protein stability index by setting is: under setting [1], 0.7139 ± 0.0039; (genetic background: wild type) 0.385 ± 0.024.

“KNDKIHLFMYCT [YBR103C-A C-terminal 12 aa]”: the protein stability index came to 0.54 ± 0.022 under setting [1] and 0.536 ± 0.0038 (genetic background: wild type).

As for KNGYGNSNASWW [DBP1 C-terminal 12 aa], the protein stability index came to 0.717 ± 0.031 under setting [1] and 0.691 ± 0.027 (genetic background: wild type).

KNNEVLLHKIKI [FAR8 C-terminal 12 aa]: the protein stability index came out at 0.715 ± 0.015 under setting [1] and 0.669 ± 0.056 (genetic background: wild type).

On to KNVMRRGQFMKR [GRC3 C-terminal 12 aa], for which the protein stability index by setting is: under setting [1], 0.681 ± 0.013; (genetic background: wild type) 0.753 ± 0.048.

Sequence KPSAKPVDLSKL [DAL7 C-terminal 12 aa] displayed a protein stability index under setting [1] of 0.759 ± 0.011 and a protein stability index (genetic background: wild type) of 0.846 ± 0.069.

The sequence KPTASSSRKMFR [DUO1 C-terminal 12 aa] gave a protein stability index under setting [1] of 0.7169 ± 0.0025 and a protein stability index (genetic background: wild type) of 0.722 ± 0.051.

As to KQKAFIQPKLVF [UTP4 C-terminal 12 aa], the protein stability index runs as follows: under setting [1], 0.691 ± 0.018; (genetic background: wild type) 0.692 ± 0.017.

As to KQKALRGEFGAF [RNA15 C-terminal 12 aa], the protein stability index was determined as 0.709 ± 0.011 under setting [1] and 0.688 ± 0.01 (genetic background: wild type).

For KQNSSITQKNSS [EPL1 C-terminal 12 aa], the protein stability index runs as follows: under setting [1], 0.71115 ± 0.00071; (genetic background: wild type) 0.697 ± 0.031.

Turning to KQVNEDADSDLL [KEL1 C-terminal 12 aa], the protein stability index under setting [1] was 0.6784 ± 0.0013 and the protein stability index (genetic background: wild type) was 0.682 ± 0.013.

With “KRMALFVQEKLA [YFL031C-A C-terminal 12 aa]”, the protein stability index under setting [1] came to 0.717 ± 0.0081 and the protein stability index (genetic background: wild type) amounted to 0.18 ± 0.0051.

For “KRPPLPNMSFSW [YLL019W-A C-terminal 12 aa]”, the protein stability index came to 0.776 ± 0.025 under setting [1] and 0.728 ± 0.028 (genetic background: wild type).

With KRTKTKITSNNG [YBR190W C-terminal 12 aa], the protein stability index under setting [1] turned out to be 0.711 ± 0.012 and the protein stability index (genetic background: wild type) was 0.69 ± 0.018.

As to KSEVERVYKENS [FAA3 C-terminal 12 aa], the protein stability index by setting is: under setting [1], 0.718 ± 0.0093; (genetic background: wild type) 0.6803 ± 0.0059.

In turn, KSLAECQELLKN [TPD3 C-terminal 12 aa] registered a protein stability index under setting [1] of 0.687 ± 0.0072 and a protein stability index (genetic background: wild type) of 0.663 ± 0.061.

Turning to KTITIGNLPNSI [UGA2 C-terminal 12 aa], the protein stability index under setting [1] worked out at 0.7224 ± 0.0026 and the protein stability index (genetic background: wild type) is 0.715 ± 0.026.

For the sequence KTPNTKRRKTHK [HAS1 C-terminal 12 aa], the protein stability index reads like this: under setting [1], 0.745 ± 0.024; (genetic background: wild type) 0.75 ± 0.036.

In the case of KTTPRNVELFGM [DXO1 C-terminal 12 aa], the protein stability index turned out to be 0.678 ± 0.021 under setting [1] and 0.693 ± 0.018 (genetic background: wild type).

Regarding KVCVCMTINSYN [YDR154C C-terminal 12 aa], the protein stability index by setting is: under setting [1], 0.585 ± 0.027; (genetic background: wild type) 0.583 ± 0.018.

“KVTKAAQKAAKK [YPR080W; YBR118W C-terminal 12 aa]” came in with a protein stability index under setting [1] of 0.678 ± 0.0078 and a protein stability index (genetic background: wild type) of 0.696 ± 0.012.

Regarding KWCASYSAGNRR [YLR280C C-terminal 12 aa], the protein stability index by setting is: under setting [1], 0.709 ± 0.017; (genetic background: wild type) 0.6752 ± 0.0061.

Take KYESATASALVN [RPS13 C-terminal 12 aa]: the protein stability index turned out to be 0.697 ± 0.019 under setting [1] and 0.702 ± 0.015 (genetic background: wild type).

On to KYFHEDVSEDAY [MET5 C-terminal 12 aa], for which the protein stability index reads like this: under setting [1], 0.707 ± 0.028; (genetic background: wild type) 0.699 ± 0.013.

Regarding LADEEDAIHDEL [PDI1 C-terminal 12 aa], the protein stability index was 0.68604 ± 0.00055 under setting [1] and 0.678 ± 0.023 (genetic background: wild type).

In the case of LAEVIGVLLKDM [AIM10 C-terminal 12 aa], the protein stability index by setting is: under setting [1], 0.69483 ± 0.00037; (genetic background: wild type) 0.646 ± 0.038.

On to LDAILLDIICND [MDM1 C-terminal 12 aa], for which the protein stability index by setting is: under setting [1], 0.697 ± 0.0082; (genetic background: wild type) 0.735 ± 0.045.

LEEVEVNDFIQE [SWM2 C-terminal 12 aa]: the protein stability index runs as follows: under setting [1], 0.7099 ± 0.0036; (genetic background: wild type) 0.682 ± 0.02.

In the case of LEKEKLFNNGNH [PRI2 C-terminal 12 aa], the protein stability index turned out to be 0.722 ± 0.053 under setting [1] and 0.722 ± 0.055 (genetic background: wild type).

Consider LEKLCQKQSSTK [CMC1 C-terminal 12 aa], for which the protein stability index was determined as 0.724 ± 0.022 under setting [1] and 0.712 ± 0.066 (genetic background: wild type).

Consider LELCKLASNNLE [RRI2 C-terminal 12 aa], for which the protein stability index was 0.6896 ± 0.0022 under setting [1] and 0.703 ± 0.04 (genetic background: wild type).

Take LELQSRIESYLF [CNN1 C-terminal 12 aa]: the protein stability index runs as follows: under setting [1], 0.703 ± 0.0072; (genetic background: wild type) 0.715 ± 0.047.

In the case of LERIVGLLLMDM [MHF2 C-terminal 12 aa], the protein stability index worked out at 0.6675 ± 0.0051 under setting [1] and 0.651 ± 0.011 (genetic background: wild type).

For the sequence LFFGGEKVHSLK [NGL3 C-terminal 12 aa], the protein stability index is 0.7279 ± 0.0017 under setting [1] and 0.715 ± 0.026 (genetic background: wild type).

Take LFYNIRCLGKQF [YAR030C C-terminal 12 aa]: the protein stability index was 0.707 ± 0.011 under setting [1] and 0.3967 ± 0.0018 (genetic background: wild type).

For LFYQTIGEFASL [ATF2 C-terminal 12 aa], the protein stability index stood at 0.706 ± 0.01 under setting [1] and 0.721 ± 0.037 (genetic background: wild type).

Regarding LGKGGKGKRKMK [LSO2 C-terminal 12 aa], the protein stability index under setting [1] amounted to 0.705 ± 0.027 and the protein stability index (genetic background: wild type) stood at 0.64 ± 0.018.

With LGNNAVGLAKAI [PEP4 C-terminal 12 aa], the protein stability index runs as follows: under setting [1], 0.7 ± 0.0012; (genetic background: wild type) 0.678 ± 0.055.

The sequence LGQAVVKAINFA [YBR277C C-terminal 12 aa] gave a protein stability index under setting [1] of 0.6797 ± 0.0059 and a protein stability index (genetic background: wild type) of 0.702 ± 0.041.

The sequence LHENQLLKWLSK [RRN5 C-terminal 12 aa] returned a protein stability index under setting [1] of 0.72567 ± 0.00036 and a protein stability index (genetic background: wild type) of 0.7 ± 0.008.

For the sequence LIDSYCLGGESR [YPL034W C-terminal 12 aa], the protein stability index was determined as 0.688 ± 0.018 under setting [1] and 0.697 ± 0.039 (genetic background: wild type).

Take LIEKNFLSSHAG [YJR071W C-terminal 12 aa]: the protein stability index came out at 0.7159 ± 0.0042 under setting [1] and 0.708 ± 0.022 (genetic background: wild type).

As to LIFQRKYTAKEF [DTR1 C-terminal 12 aa], the protein stability index by setting is: under setting [1], 0.6863 ± 0.004; (genetic background: wild type) 0.678 ± 0.035.
